How the values were obtained:
[1] = target: T1, fragment of 53BP1 (a.a. 1221-1718) (Homo sapiens, UniProt Q12888); experiment: Individual two-hybrid screen of amino acid changes, percent GFP (reporter) positive cells by flow cytometry; assay type: cell-based; design: key to Dunnett's Multiple Comparison Summary: NS means not significant; *, **, ***, **** reflects qualitative measure of the strength of association the Ubv has with 53BP1 compared to the similar association of i53 with 53BP1.; *, **, ***, **** reflects qualitative measure of the strength of association the Ubv has with 53BP1 compared to the similar association of i53 with 53BP1.; *, **, ***, **** reflects qualitative measure of the strength of association the Ubv has with 53BP1 compared to the similar association of i53 with 53BP1.; *, **, ***, **** reflects qualitative measure of the strength of association the Ubv has with 53BP1 compared to the similar association of i53 with 53BP1; conditions: for Dunnett's Multiple Comparison Summary: comparison i53 vs. i53 + amino acid change; for Percent GFP Positive Rep 1: replicate 1, amino acid change in i53 fusion protein plasmid; for Percent GFP Positive Rep 2: replicate 2; for Percent GFP Positive Rep 3: replicate 3
T1 construct: a fragment of 53BP1 (a.a. 1221-1718); expressed in transfected cells; host or cells: E. coli DHM1
T1 sequence (Q12888 1221-1718): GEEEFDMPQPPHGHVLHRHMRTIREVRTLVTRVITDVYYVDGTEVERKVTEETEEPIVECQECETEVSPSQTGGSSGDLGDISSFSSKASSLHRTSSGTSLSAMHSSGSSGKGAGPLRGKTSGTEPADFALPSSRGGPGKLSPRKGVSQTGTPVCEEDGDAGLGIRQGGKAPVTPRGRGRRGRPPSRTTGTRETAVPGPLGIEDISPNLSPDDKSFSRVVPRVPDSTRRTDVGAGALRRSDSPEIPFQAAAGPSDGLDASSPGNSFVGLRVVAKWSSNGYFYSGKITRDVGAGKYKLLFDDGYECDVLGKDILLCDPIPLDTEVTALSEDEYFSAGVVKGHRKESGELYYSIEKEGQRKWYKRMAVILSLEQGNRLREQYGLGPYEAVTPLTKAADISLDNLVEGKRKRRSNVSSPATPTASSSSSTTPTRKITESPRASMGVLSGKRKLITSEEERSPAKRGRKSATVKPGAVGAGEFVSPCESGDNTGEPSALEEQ
Source text: (§1) In order to identify mutations that improve the affinity of i53 for 53BP1, the bacterial adenylate cyclase two-hybrid system (BACTH system) was used to screen for interaction between the two proteins. This method makes use of a B. pertussis calmodulin-dependent adenylate cyclase toxin. The catalytic domain of the toxin can be separated into two fragments (T18 and T25) that are able to associate in the presence of calmodulin but have minimal activity in its absence. If bait and prey proteins fused to T18 and T25 interact, then the catalytic activity is restored and cAMP is produced. In E. coli, cAMP binds to catabolite activator protein (CAP) that acts as a transcriptional activator for several genes. By expressing these fusion proteins in an E. coli strain that lacks endogenous adenylate cyclase and naturally lacks calmodulin, cAMP regulated protein expression can be used as a readout of bait-prey interaction. We engineered the screen so that eGFP will be expressed under the control of a cAMP-regulated promoter. The coding sequence for a fragment of 53BP1 (a.a. 1221-1718) containing the i53 interacting regions and i53 were cloned into T18 and T25 adenylate cyclase expression plasmids such that fusion proteins of each would be expressed. If a Ubv interacts with 53BP1, the T18 and T25 fragments will be brought together, adenylate cyclase activity will be restored, cAMP will be produced, and some portion of the bacterial population will be GFP positive.
(§2) There was a high degree of correlation between the two experiments and between replicates (FIG. 2). From these screens, about 230 amino acid changes were identified for which the average enrichment was positive for at least one of the experiments (Table 1). […] To validate that the amino acid changes identified from the pooled screen are reproducible on an individual basis, 24 amino acid changes identified from this screen were introduced individually into the i53 fusion protein plasmid and tested by flow cytometry for their effect on the percent positive population relative to i53 (FIG. 3). There was a strong correlation between the enrichment measured from the pooled screen and the percent reporter positive cells when mutations were screened individually.

[2] = target: T1, fragment of 53BP1 (a.a. 1221-1718); experiment: BACTH two-hybrid pooled screen in E. coli, FACS sorting of GFP positive cells and NGS enrichment of i53 amino acid changes; assay type: cell-based; conditions: i53 (SEQ ID NO: 2) background; for Rep 1 Enrichment / Rep 2 Enrichment: log2 enrichment of amino acid change in GFP positive vs input, normalised to synonymous changes; for Average Enrichment / Experiment 1 - high selection pressure Average Enrichment / Experiment 2-low selection pressure Average Enrichment: average of Rep 1 and Rep 2; for Average Enrichment: log2 enrichment; for Experiment 1 - high selection pressure Average Enrichment / Experiment 2-low selection pressure Average Enrichment: log 2 enrichment; for Experiment 1 - high selection pressure Rep 1 Enrichment / Experiment 2-low selection pressure Rep 1 Enrichment: replicate 1; for Experiment 1 - high selection pressure Rep 1 Enrichment / Experiment 1 - high selection pressure Rep 2 Enrichment / Experiment 2-low selection pressure Rep 1 Enrichment / Experiment 2-low selection pressure Rep 2 Enrichment: enrichment = log 2 of positive/input read count ratio normalised to synonymous changes; for Experiment 1 - high selection pressure Rep 2 Enrichment / Experiment 2-low selection pressure Rep 2 Enrichment: replicate 2
Source text: as §1
A plasmid library was made consisting of Ubv-adenylate cyclase fragment fusion protein plasmids that had on average a single codon within the i53 coding region exchanged for a random NNK codon. Plasmids were transformed into DHM1 cells that lack endogenous adenylate cyclase and contain the plasmid for expression of the 53BP1 fragment fused to one of the adenylate cyclase fragments. Expression of eGFP was used as a readout of bait-prey interaction using fluorescence activated cell sorting (FACS) to sort for GFP positive bacteria. Plasmid DNA was isolated from both the sorted GFP positive bacteria (Positive) and from the original pre-sort population (Input) and was sequenced using NGS. Counts were merged for mutations that result in the same amino acid change using Enrich2 [25]. Enrichment was calculated as enrichment=log 2((read count for an amino acid change in the positive population/read count for an amino acid change in the input)/(synonymous change read count in the positive population/synonymous change read count in the input)). […] For each experiment, DHM1 cells were transformed with the Ubv fusion protein plasmid library in two separate replicates using a gene pulser (Bio-Rad). The i53-adenylate cyclase fragment fusion protein (published i53 peptide, SEQ ID NO:2) plasmid was also introduced separately as a control to estimate selection pressure. Cells were then grown and sorted using FACS and GFP positive cells were collected. Two separate experiments were conducted on separate days using different levels of selection pressure resulting in a different percent GFP positive for the i53 population (i.e. for cells that express published i53 peptide (SEQ ID NO:2) fused to one of the adenylate cyclase fragments).
as §2

[3] = Experiment 1 - high selection pressure
[4] = Experiment 2 - low selection pressure

| Substance | Dunnett's Multiple Comparison Summary [1] | Percent GFP Positive Rep 1 [1] [%] | Percent GFP Positive Rep 2 [1] [%] | Percent GFP Positive Rep 3 [1] [%] | Rep 1 Enrichment [2, 3] | Rep 2 Enrichment [2, 3] | Average Enrichment [2, 3] | Rep 1 Enrichment [2, 4] | Rep 2 Enrichment [2, 4] | Average Enrichment [2, 4] | Experiment 1 - high selection pressure Average Enrichment [2] | Experiment 1 - high selection pressure Rep 1 Enrichment [2] | Experiment 1 - high selection pressure Rep 2 Enrichment [2] | Experiment 2-low selection pressure Average Enrichment [2] | Experiment 2-low selection pressure Rep 1 Enrichment [2] | Experiment 2-low selection pressure Rep 2 Enrichment [2] |
| --- | --- | --- | --- | --- | --- | --- | --- | --- | --- | --- | --- | --- | --- | --- | --- | --- |
| A44T: i53 with amino acid change A44T | ns | 17.5 | 7.7 | 12.8 | 1.70 | 0.87 | 1.28 | 0.75 | 0.59 | 0.67 |  |  |  |  |  |  |
| H68M: i53 with amino acid change H68M | *** | 28.6 | 23.5 | 28.3 |  |  |  |  |  |  | 2.28 | 2.53 | 2.04 | 1.28 | 0.99 | 1.58 |
| I61L: i53 with amino acid change I61L | ns | 15.9 | 17.6 | 17.2 | 1.10 | 1.02 | 1.06 | 0.75 | 0.59 | 0.67 |  |  |  |  |  |  |
| K29M: i53 with amino acid change K29M | ns | 23.9 | 16.5 | 17.8 | 1.72 | 1.48 | 1.60 | 1.23 | 0.57 | 0.90 |  |  |  |  |  |  |
| K48T: i53 with amino acid change K48T | ns | 16.9 | 14 | 14.5 | 1.20 | 1.08 | 1.14 | 0.84 | 0.66 | 0.75 |  |  |  |  |  |  |
| L67K: i53 with amino acid change L67K | ns | 24.2 | 11.2 | 21.5 | 2.08 | 1.93 | 2.01 | 1.40 | 0.39 | 0.89 |  |  |  |  |  |  |
| L73M: i53 with amino acid change L73M | **** | 36.2 | 29.2 | 39.5 |  |  |  |  |  |  | 2.61 | 2.69 | 2.52 | 1.43 | 1.58 | 1.28 |
| S49L: i53 with amino acid change S49L | ns | 18.8 | 13.6 | 17.7 | 0.85 | 1.15 | 1.00 | 0.97 | 0.80 | 0.88 |  |  |  |  |  |  |
| V26I: i53 with amino acid change V26I | ns | 20.9 | 14.2 | 12.3 | 0.99 | 1.25 | 1.12 | 0.96 | 0.70 | 0.83 |  |  |  |  |  |  |
| i53 K6R: i53 with K6R | ** | 19.8 | 27 | 24 | 1.84 | 1.91 | 1.87 | 1.22 | 0.80 | 1.01 |  |  |  |  |  |  |
